From patent US20240190987A1, “Engineered EpCam Binding Antibodies” (TigaTX, priority 2021, published 2024)
Numbering of substitutions follows the chain as printed.

T1: huEpCAM ECD Ag0065 (human) (UniProt P16422)
T1 sequence: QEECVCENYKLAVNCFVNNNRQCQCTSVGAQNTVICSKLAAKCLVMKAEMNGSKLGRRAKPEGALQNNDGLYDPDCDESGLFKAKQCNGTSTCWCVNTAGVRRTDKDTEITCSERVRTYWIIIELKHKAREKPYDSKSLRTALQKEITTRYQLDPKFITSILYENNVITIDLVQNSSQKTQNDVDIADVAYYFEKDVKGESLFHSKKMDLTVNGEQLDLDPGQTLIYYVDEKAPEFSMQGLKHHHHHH

B1: Ab0785 (Fab, V domains shown)
VH: QVQLVQSGAEVKKPGASVKVSCKASGYTFTSYWMHWVRQHPGQGLEWMGIIHPNSGGTSYAQKFQGRVTMTRDTSTSTVYMELSSLRSEDTAVYYCAMGDYVSRDYWGQGTLVTVSS
VL: EIVLTQSPGTLSLSPGERATLSCRASSSVSSSYLHWYQQKPGQAPRLLIYSTSSRATGIPDRFSGSGSGTDFTLTISRLEPEDFAVYYCQQYSGYQFTFGQGTKLEIK
modifications: chain 1 pos 246: the Lys of the Avi-tag is biotinylated where biotinylated-Ab0785 was captured on streptavidin sensors; written K
B2: Ab0788 (Fab, V domains shown)
VH: B1 VH with S59N
VL: B1 VL
B3: Ab1019 (antibody, V domains shown)
VH: EVQLVESGGGLVQPGGSLRLSCAASGFTFSNYWMNWVRQAPGKGLEWVAQIRVKSENFATHYADSVKGRFTISRDDSKSTVYLQMNSLRAEDTAVYYCTLYDAFSWGQGTLVTVSS
VL: DIQMTQSPSSLSASVGDRVTITCSASSSVSSGNFHWYQQKPGKAPKLLIYRTSNLASGVPSRFSGSGSGTDYTLTISSLQPEDFATYYCQQWSGYPYTFGQGTKVEIK
B4: Ab1024 (antibody, V domains shown)
VH: B3 VH with A63V, A103G
VL: B3 VL
B5: Ab1018 (antibody, V domains shown)
VH: B3 VH with D102E, A103G
VL: B3 VL
B6: Ab1066 (antibody, V domains shown)
VH: B3 VH
VL: B3 VL with W92A
B7: Ab1071 (Fab, V domains shown)
VH: EVQLVESGGGLVQPGGSLRLSCAASGFDFSSYSIHWVRQAPGKGLEWVASISPYYGSTYYADSVKGRFTISADTSKNTAYLQMNSLRAEDTAVYYCARYYEWYKYDLYAGSLGFDYWGQGTLVTVSS
VL: DIQMTQSPSSLSASVGDRVTITCRASQSVSSAVAWYQQKPGKAPKLLIYSASSLYSGVPSRFSGSRSGTDFTLTISSLQPEDFATYYCQQGGYSLITFGQGTKVEIK
B8: Ab1011 (antibody, V domains shown)
VH: B3 VH with L100R, A103G
VL: DIQMTQSPSSLSASVGDRVTITCSASSSVSSGNFHWYQQKPGKAPKLLIYRTSNLASGVPSRFSGSGSGTDYTLTISSLQPEDFATYYCQQWSGYPYTFGQGTKVEIKR
B9: Ab1021 (antibody, V domains shown)
VH: B3 VH with A40S, A103G
VL: B3 VL
B10: Ab1017 (antibody, V domains shown)
VH: B3 VH with N35S, A103G
VL: B3 VL
B11: Ab1016 (antibody, V domains shown)
VH: B3 VH with W33Y, A103G
VL: B3 VL
B12: Ab1023 (antibody, V domains shown)
VH: B3 VH with S55Y, A103G
VL: B3 VL
B13: Ab1012 (antibody, V domains shown)
VH: B3 VH with N31S, A103G
VL: B3 VL
B14: Ab0706 (antibody, V domains shown)
VH: B7 VH with D106S, Y108N, A109L
VL: B7 VL
B15: Ab0707 (antibody, V domains shown)
VH: B7 VH with D106S, Y108D, A109L
VL: B7 VL
B16: Ab0637 (antibody, V domains shown)
VH: B7 VH with D106S, A109L
VL: B7 VL
B17: Ab0935 (antibody, V domains shown)
VH: B7 VH with Y32A, A109L
VL: B7 VL
B18: Ab0946 (antibody, V domains shown)
VH: B7 VH with A109L, G113A
VL: B7 VL
B19: Ab0943 (antibody, V domains shown)
VH: B7 VH with K104A, A109L
VL: B7 VL
B20: Ab0941 (antibody, V domains shown)
VH: B7 VH with S57A, A109L
VL: B7 VL
B21: Ab0938 (antibody, V domains shown)
VH: B7 VH with S52A, A109L
VL: B7 VL
B22: Ab0936 (antibody, V domains shown)
VH: B7 VH with S50A, A109L
VL: B7 VL
B23: Ab0944 (antibody, V domains shown)
VH: B7 VH with D106A, A109L
VL: B7 VL
B24: Ab0939 (antibody, V domains shown)
VH: B7 VH with P53A, A109L
VL: B7 VL
B25: Ab0942 (antibody, V domains shown)
VH: B7 VH with E101A, A109L
VL: B7 VL
B26: Ab0940 (antibody, V domains shown)
VH: B7 VH with G56A, A109L
VL: B7 VL
B27: Ab0947 (antibody, V domains shown)
VH: B7 VH with A109L, D115A
VL: B7 VL
B28: Ab0948 (antibody, V domains shown)
VH: B7 VH with A109L, Y116A
VL: B7 VL
B29: Ab1044 (antibody, V domains shown)
VH: B7 VH with S50A
VL: B7 VL
B30: Ab1047 (antibody, V domains shown)
VH: B7 VH with S50A, Y59A, Y99A
VL: B7 VL

Target: Ab0670
Test: 5-pt kinetics

Row | Kd | Binder
1 | 29 nM | B1
2 | 86 nM | B2

Target: cyEpCAM ECD Ag0066 (cyno)
Test: SPR multi-cycle

Row | Kd | Binder
3 | 1.1 nM | B3
4 | 0.94 nM | B4
5 | 1.6 nM | B5
6 | 3 nM | B6

Target: T1, huEpCAM ECD Ag0065 (human)
Test: SPR multi-cycle

Row | Kd | Binder
7 | 1.8 nM | B3
8 | 1.6 nM | B4
9 | 2.8 nM | B5
10 | 5.7 nM | B6

Target: Ab0785
Test: BLI +indinavir

Row | Kd | Binder
11 | 2.4 nM | B7

Target: cyEpCAM ECD Ag0066 (cyno)
Test: SPR single-cycle

Row | Kd | Binder
12 | 9.9 nM | B8
13 | 2 nM | B3
14 | 2.3 nM | B9
15 | 4.5 nM | B10
16 | 2 nM | B4
17 | 7.7 nM | B11
18 | 2.1 nM | B5
19 | 0.9 nM | B12
20 | 6.2 nM | B13

Target: T1, huEpCAM ECD Ag0065 (human)
Test: SPR single-cycle

Row | Kd | Binder
21 | 2.5 nM | B3
22 | 3.1 nM | B9
23 | 7.6 nM | B10
24 | 2.3 nM | B4
25 | 7.2 nM | B11
26 | 3 nM | B5
27 | 2 nM | B12
28 | 9.7 nM | B13

Target: Ab0223
Test: BLI 3-pt +indinavir

Row | Kd | Binder
29 | 89 nM | B14
30 | 72 nM | B15
31 | 5.4 nM | B16

Target: Ab0223
Test: BLI 5-pt +indinavir

Row | Kd | Binder
32 | 3.7 nM | B16

Target: Ab0223
Test: BLI 1-pt +indinavir
Target sequence in this assay (VH, as listed by the source limits assumed, form in doubt, chain 1 of 2): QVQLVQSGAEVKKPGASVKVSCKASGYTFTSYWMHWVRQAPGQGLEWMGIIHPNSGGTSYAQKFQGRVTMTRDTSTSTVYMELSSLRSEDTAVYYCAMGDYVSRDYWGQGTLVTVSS
Target sequence in this assay (VL, as listed by the source limits assumed, form in doubt, chain 2 of 2): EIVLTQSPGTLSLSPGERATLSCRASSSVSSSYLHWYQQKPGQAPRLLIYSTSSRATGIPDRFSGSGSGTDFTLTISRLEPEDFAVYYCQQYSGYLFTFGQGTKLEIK

Row | Kd | Binder
33 | 230 nM | B17
34 | 50 nM | B18
35 | 130 nM | B19
36 | 3.7 nM | B20
37 | 310 nM | B21
38 | < 1 nM | B22
39 | 7.1 nM | B23
40 | 3.7 nM | B24
41 | 210 nM | B25
42 | 10 nM | B26
43 | 52 nM | B27
44 | 7.3 nM | B28

Target: Ab0786
Test: BLI 1-pt +indinavir

Row | Kd | Binder
45 | 8.2 nM | B29

Target: Ab0787
Test: BLI 1-pt +indinavir

Row | Kd | Binder
46 | 47 nM | B30
47 | 5.1 nM | B29

Target: Ab0223
Test: BLI 5-pt +indinavir
Remark: another data set of the same source

Row | Kd | Binder
48 | 5.9 nM | B16

Target: Ab0786
Test: BLI 5-pt +indinavir

Row | Kd | Binder
49 | 8.6 nM | B29

Target: Ab0787
Test: BLI 5-pt +indinavir

Row | Kd | Binder
50 | 2.3 nM | B29
